The DeepSol protein solubility set

Assay: soluble on expression in E. coli; label from the status in PepcDB or PDB records

| Sequence | soluble on expression in E. coli |
| --- | --- |
| MNFEGKIALVTGASRGIGRAIAETLAARGAKVIGTATSENGAQAISDYLGANGKGLMLNVTDPASIESVLEKIRAEFGEVDILVNNAGITRDNLLMRMKDEEWNDIIETNLSSVFRLSKAVMRAMMKKRHGRIITIGSVVGTMGNGGQANYAAAKAGLIGFSKSLAREVASRGITVNVVAPGFIETDMTRALSDDQRAGILAQVPAGRLGGAQEIANAVAFLASDEAAYITGETLHVNGGMYMV | soluble |
| MEWHFSLKEPHVLLFLPFEKYALPYPDPSQSWLSFGLTEIPVPEWTKNLEIITPWRPDFLKFANAQFRCSPEINQTCTHDGALLQLSKYRGFNQNCFLDLLERVKPGGWIIIGGNKTSGADSMMKWVKKIVPITNKFSKNHGLVFWIQVPQQIEKQNTAQLRSPPLTFENKFQTTSGMFSHGRIDPGSAVLASHMCKTISGKTADFGAGWGFLSHAALERSEKLTALDLYEADYNALKAAKQHLKHITTSLPIHFYWHDLVHEPITNLYDTIISNPPFHTQQTTDVSLGQHFIINAAKYLKPGGNLLLVANRHLPYETLLKRLFRTVLIYEKAHGFKVIEAYR | not soluble |
| MSLFIISQVFSPEGQRVLTMQFTKWFIALPLAVTALSGCSLLERLVYRIDINQGNYVDQQSVDQLKFGMSKDQVRFVLGSPMLVENGYPDTWYYIYHHTQGHNDPVQKNLIVKFNDGGKLVNVAGDFPAGDSFFEGVNEGHHHHHH | soluble |
| MGSDKIHHHHHHGQPSNDKKNVLPDWAFGGFERPQGANPVISPIENTKFYCPMTQDYVAWESNDTFNPAATLHDGKIVVLYRAEDKSGVGIGHRTSRLGYATSSDGIHFKREKTPVFYPDNDTQKKLEWPGGCEDPRIAVTAEGLYVMTYTQWNRHIPRLAIATSRNLKDWTKHGPAFAKAYDGKFFNLGCKSGSILTEVVNGKQVIKKIDGKYFMYWGEEHVFAATSEDLVNWTPYVNTDGSLRKLFSPRDGHFDSQLTECGPPAIYTPKGIVLLYNGKNSASRGDKRYTANVYAAGQALFDANDPTRFITRLDEPFFRPMDSFEKSGQYVDGTVFIEGMVYYKDKWYLYYGCADSKVGMAIYNPKKPAAADPLP | not soluble |
| MAVPAASSIVSYGGAATSNFLTTPVTPFLAGFYNSNFVTDRINSCAPYRVDRIRKQLQDEEENGYPPADDRRRGALFCRSGTWLEMLPIENPDDGSTRVKVHGTKEESSKFSIVEFVSVAMSLVSIRGVETKNFICMDPSGKLYATPSSNYSTECVFLEEMMENYYNLYASCAYGDRFNPWYIELRRSGKPRRGPNSKKRRKASHFLVVHHDLDRLRSPVPNGNDVTDLVVASLFHQPPSHPLFRQQTVTKPPNPHRISNLRAKVEMTNQAEKQRLLEEKKRRREKKKRRREDRLRKEEQIREARRQELKSLREEELRRRYQQQQQQQASTQTRYNRPQNPANPYPTYRPLPTRSTVQSPRPAYNPYWQSPVTQAPHHNSHHHHHHHPRVSSSSDPQQRHQSQQHYLAQTVSNPNRQNVNYQRYP | not soluble |
| EETLLNTKLETADLKWVTFPQVDGQWEELSGLDEEQHSVRTYEVCDVQRAPGQAHWLRTGWVPRRGAVHVYATLRFTMLECLSLPRAGRSCKETFTVFYYESDADTATALTPAWMENPYIKVDTVAAEHLTRKRPGAEATGKVNVKTLRLGPLSKAGFYLAFQDQGACMALLSLHLFYKK | soluble |
| MGSDKIHHHHHHMPTRVIEDKGDMTPSFGIDDRIFLGEGLFETIRVNSSKPSFAYMHWERLGNSARQLGIPFEISFDDWFEHLIQKIQKDNLYHGGIKAILSGGPASRGLAERGQVSQLIFQTFNYSIQKHPVRLISINWLRDKANPLYQLKSVNYLEAIIAQRQAIAVGADDALFFNTENHVTETTCANLFLIENNILYTPRVEDGILPGITRARLISHCQQHKMSVQEISLTKKRIEDADAVFLTNSLQGIRRVLSLDNIIFEVNHPIIDKLIFLLNQDES | not soluble |
| MGSDKIHHHHHHMMLQIPDVLSKAQVAQCRQMMDVADWTDGNATSGHQSALAKRNMQLPEGSPVARQIGDLIQDALGANATFFSAALPLKVFPPLFNRYEGGQAFDNHVDNAIRYLRGTGFRVRSDLSATLFLTEPQDYDGGELVIEDTYGQHRVKLPAGYMVLYPATSLHHVTPVTRGARVSSFFWIQSMVRDEGQRALLFELDTRIQQVAEEMGQKDSGVVGLTGVYHNLLRRWADA | not soluble |
| SNAMRKDETSNTSPDISVAQPASALRYHLRPPRRNDGAAIHQLVSECPPLDLNSLYAYLLLCEHHAHTCVVAESPGGRIDGFVSAYLLPTRPDVLFVWQVAVHSRARGHRLGRAMLGHILERQECRHVRHLETTVGPDNQASRRTFAGLAGERGAHVSEQPFFDRQAFGGADHDDEMLLRIGPFTHPPH | soluble |
| MGHHHHHHSHMQNADDFIKFLELEQHVEGGFYRSSYRSETAFDPSRQLWSSIYFLLRTGEVSHFHRLTADEMWYFHAGQSLTIYMISPEGELTTAQLGLDLAAGERPQFLVPKGCIFGSAMNQDGFSLVGCMVSPGFTFDDFELFSQEALLAMYPQHKAVVQKLSRPEVN | soluble |
| RRAYGKNSKWVLINYNTGQPYEQTKVTPDGLIDYDAVLAANAAASNGSEAIFALGSNSHKWFGLLSSFKKKLNSSLTLTAGYDGRYYRGDHYDKITDLLGGSYYIEDPKTKLAYHAEGQQLKVGDIVNRDYTGEIMWHGLFAQMEHSSEWIDAFVSGSINYELYRNHNYGGSKSTGYLPGVSPWKSFLPWSGKAGLSYKFAQGHNVFANGGFFTRAPLFGNIYAAGAIIPNDKANMEKVLTGEVGYGFTNHKNFEFNINGYYTKWMDRVTSKRIGNEYVYLNGVDAVHCGVEAEVSYRPIRQIDLRGMFSLGDWTWQNNVSYTSYDEAGNETGQDITYIKGLHVGDAAQMTAAVSADIELFKGFHVIGKYNFLGKNYAGFNPATRNAQQYEADGKEIVESWKLPDVGLFDLSASYNFKLGSLSTTFYFNMDNVADKRYVSDADDNIIGKKHDEASALVWYGFGRTWSTGIRVNF | not soluble |
| MGSDKIHHHHHHMSSGTENDQFYSFDESDSSSIELYESHNTSEFTIHGLVFPKLISVTSQDSEFDINEDEDGVDTIYEGMLDAPLTKNNKRILCEGSVPNLSYECLTTKGIFERMLQRVDHLQPIFAIPSADILILLQHYDWNEERLLEVWTEKMDELLVELGLSTTANIKKDNDYNSHFREVEFKNDFTCIICCDKKDTETFALECGHEYCINCYRHYIKDKLHEGNIITCMDCSLALKNEDIDKVMGHPSSSKLMDSSIKSFVQKHNRNYKWCPFADCKSIVHLRDTSSLPEYTRLHYSPFVKCNSFHRFCFNCGFEVHSPADCKITTAWVKKARKESEILNWVLSHTKECPKCSVNIEKNGGCNHMVCSSCKYEFCWICEGPWAPHGKNFFQCTMYKNNEDNKSKNPQDANKTLKKYTFYYRLFNEHEVSAKLDWNLGQTLGTKVHALQERIGISWIDGQFLSESLKVLNEGRTVLKWSFAVAYYSDASHNLTKIFVDNQMLLANAVESLSELLQIKTPEVIMKRRPEFYNKAGYVENRTTALMECGRELLCKGICKAAE | not soluble |
| MGSDKIHHHHHHMNLWDKKAKTYARYQNTLNTIQKQTFEYLQNLKISFQDKSIIDIGCGTGVWTLHLAKEAKEILALDSANAMLEILQEDAKKLNLNNIKCKNLSFETWMQNNPNVKFDLAFLSMSPALQNEKDYTNFLNLAKIKIYLGWADYRKSDFLDPIFKYFNTEFKGFYKKDLENYLLEKNIFFHKIVFDETRKVQRTKEEAIENALWHLSMNKITASKETVSSFVENNITETIESKIKLLIINNL | not soluble |
| GGGVMHYTDKAALPADGEAREVAALFDTWNAALATGNPHKVADLYAPDGVLLPTVSNEVRASREQIENYFEMFLTKKPKGVINYRTVRLLDDDSAVDAGVYTFTLTDKNGKKSDVQARYTFVYEKRDGKWLIINHHSSAMPEVDTATATAAVTKAK | soluble |
| TDQAAFDTNIVTLTRFVMEEGRKARGTGEMTQLLNSLCTAVKAISTAVRKAGIAHLWGIAGSTNVTGDQVKKLDVLSNDLVINVLKSSFATCVLVSEEDKNAIIVEPEKRGKYVVCFDPLDGSSNIDCLVSIGTIFGIYRKNSTDEPSEKDALQPGRNLVAAGYALYGSATMLVLAMVNGVNCFMLDPAIGEFILVDRDVKIKKKGSIYSINEGYAKEFDPAITEYIQRKKFPPDNSAPYGARYVGSMVADVHRTLVYGGIFMYPANKKSPKGKLRLLYECNPMAYVMEKAGGLATTGKEAVLDIVPTDIHQRAPIILGSPEDVTELLEIYQKHAAK | soluble |
| MGSDKIHHHHHHQAEPAPLASAGPAANDPLEGFNRASFKLGMGLDRALLAPITHGYMAVTPRVVRDRVSLVIYNMGEPNTVMNQVLQGKPRQAVRSSTRFVVNSTVGVAGLFDVAAKMGLPPRGADFGQTFGRWGAGPGAYIYVPLMGPLNVRDGVGRALDIVTDPVSLFVGGLDTDFGRARTAITVVDLRATTDSAYEALKDASDPYVTTRSAYAQYREAFVREATGESEALPDFDAPPSEPNTSSATPNP | not soluble |
| MGSSHHHHHHSSGLVPRGSHMKLNRVVVTGYGVTSPIGNTPEEFWNSLATGKIGIGGITKFDHSDFDVHNAAEIQDFPFDKYFVKKDTNRFDNYSLYALYAAQEAVNHANLDVEALNRDRFGVIVASGIGGIKEIEDQVLRLHEKGPKRVKPMTLPKALPNMASGNVAMRFGANGVCKSINTACSSSNDAIGDAFRSIKFGFQDVMLVGGTEASITPFAIAGFQALTALSTTEDPTRASIPFDKDRNGFVMGEGSGMLVLESLEHAEKRGATILAEVVGYGNTCDAYHMTSPHPEGQGAIKAIKLALEEAEISPEQVAYVNAAGTSTPANEKGESGAIVAVLGKEVPVSSTKSFTGHLLGAAGAVEAIVTIEAMRHNFVPMTAGTSEVSDYIEANVVYAQGLEKEIPYAISNTFGFGGHNAVLAFKRWENR | soluble |
| MVSQVRQNYHSDCEAAVNRMLNLELYASYTYSSMYAFFDRDDVALHNVAEFFKEHSHEEREHAEKFMKYQNKRGGRVVLQDIKKPERDEWGNTLEAMQAALQLEKTVNQALLDLHKLATDKVDPHLCDFLESEYLEEQVKDIKRIGDFITNLKRLGLPENGMGEYLFDKHSVKESS | soluble |
| MGSDKIHHHHHHKKVIKTMMIAGQDGSHYWRGACEAMKQILENSGMFKVDFVFTPDFGGDINTFKPDFAKYNLVVVNYGGEVWPEPVQKAFENYVADGGGVVIIHSSVVPMAGWKAYNEIIGMGAWEGRNEKDGPYLYWKEGKYVYDYTPGYAGYHGLQHETILEHRAPEHPILKGLPIRWKHFKDEIYTRLRGPVRNVEILATAYERGRHEPLMWTVKWGKGRVFVDLLGHCGNDPNMIYSMECTGFQVTLLRGAEWAATGEVTQEAPRDFPLEDTCTLRPEFKAPFHATN | not soluble |
| MSLKITFTDKALDYLKRREILNKILILIADDGGGKYSIKGGGCAIGSHFSIIYVDKVDPDYPIKLENDQGINIYTSKYDTTMMGPNLVVDYANASLNLKSDEGLLDGGVDIGNGAELIKAQKNVKMTGVEWRCEGHHHHHH | soluble |
| GMEQHQVWAYQTKTHSVTLNSVDIPALAADDILVQNQAIGINPVDWKFIKANPINWSNGHVPGVDGAGVIVKVGAKVDSKMLGRRVAYHTSLKRHGSFAEFTVLNTDRVMTLPDNLSFERAAALPCPLLTAWQAFEKIPLTKQREVLIVGFGAVNNLLTQMLNNAGYVVDLVSASLSQALAAKRGVRHLYREPSQVTQKYFAIFDAVNSQNAAALVPSLKANGHIICIQDRIPAPIDPAFTRTISYHEIALGALHDFGDRQDWQILMQQGEALLTLIAQGKMEIAAPDIFRFEQMIEALDHSEQTKLKTVLTLNE | soluble |
| AADITVASYNIHKGVGTDRRRDLRRTAAVIAELDADLVALQEADRRFGDRAGLLDLEHLKDETGLVPVKVEGRGRAHGWHGNLLLVRDAEVEEVQKIVLPSFEPRGALMIDMMIRGRPLRVIAAHLGLLPASRAAQTRHLLERIEASTPRPTLLMGDLNEWRGTGAAMGHLARHFTGGVMVRSFPSRFPILALDRLMTCKHGQLHDVSTHDTPLARRASDHLPIKARLHLP | not soluble |
